Results reported in patent publication US12186436B2, “Triblock copolymer stabilizers for the formation of nanoparticles encapsulating soluble biologics, therapeutics, and imaging agents” (The Trustees of Princeton University, priority 2018, dated 2025).

Assay: Release of biologic from nanoparticles in release buffer (fluorescence of soluble biologic after 100 kDa ultrafiltration)
Type: physicochemical
Details: nanoparticles made by Process 2
Description: Release can be studied by diluting the final concentrated nanoparticle solution after ultrafiltration into the desired release buffer. The solutions can then be incubated under the required conditions of temperature and agitation. A suitable method to separate nanoparticles from released biologic can be employed at periodic time points to evaluate the released fraction. In one embodiment, ultrafiltration with a 100 kDa molecular weight cut-off is used to separate released biologic from the nanoparticles containing biologic that is still encapsulated.
Residual acetone and unencapsulated biologic were removed by rinsing on a 100 kDa Amicon ultrafilter that had been pre-blocked to prevent non-specific adsorption. The nanoparticle solution was concentrated to around 15-20 mg/ml and rinsed with deionized water twice using a volume that was about 3-4 times the concentrated volume. The flow-through streams were analyzed by fluorescence to determine encapsulation efficiency. The nanoparticles were resuspended in the indicated release buffer and placed on a shaker table at 37° C. for release. […] Particle size was characterized by Dynamic Light Scattering (DLS) using a Zetasizer Nano ZS.
Temperature was controlled in the centrifugation process to either 5° C. or 20° C. […] The flow-through streams were analyzed by fluorescence to determine encapsulation efficiency. […]

lysozyme
time for lysozyme release to reach 90%: 20 to 30 h
